According to patent US20220112547, “BIOCHEMICAL REACTION METHODS AND REAGENTS COMPRISING INTRINSICALLY DISORDERED REGIONS” (Biocrucible Limited, published 2022):

Experiments:
[1] = target: T1, Gp32-HRP1 (phage vB_EcoM_NBG1); experiment: oligo enriched in phase-separated particles; MgOAc, RPA mix, no crowding agent; conditions: tags: C-terminal HRP1 IDR (S. cerevisiae Hrp1) and 7xHis; label: FAM
T1 chain: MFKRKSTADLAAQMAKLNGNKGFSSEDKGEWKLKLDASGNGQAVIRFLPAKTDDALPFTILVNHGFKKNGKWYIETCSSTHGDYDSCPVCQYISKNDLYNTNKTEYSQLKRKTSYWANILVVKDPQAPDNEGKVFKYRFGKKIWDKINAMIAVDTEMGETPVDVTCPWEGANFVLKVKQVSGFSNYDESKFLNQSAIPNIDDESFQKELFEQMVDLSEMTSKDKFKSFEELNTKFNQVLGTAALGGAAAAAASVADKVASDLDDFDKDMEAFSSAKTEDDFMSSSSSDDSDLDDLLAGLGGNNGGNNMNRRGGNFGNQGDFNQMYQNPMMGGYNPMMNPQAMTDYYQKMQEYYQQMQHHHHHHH
Experimental: (§1) Reactions were set up according to the following protocol. A reaction mixture was created with the following components: 25 mM Tris HCl pH 8.3, 7.5 mM KOAc, 1 mM DTT, 2.5 mM ATP, 20 mM phosphocreatine, 1 μM creatine kinase, 1 mM dNTPs, 0.2 μM forward primer, 0.2 μM reverse primer, 0.516 μM probe, 22.6 μM Gp32-HRP fusion, 8.4 μM UvsX, 15.3 μM UvsY, 0.135 μM S. aureus DNA polymerase (large subunit), and 0.27 μM Exonuclease III. Gp32, UvsX, UvsY, polymerase and Exonuclease III were prepared as a premix before being added in one step to the mixture of primer, buffer, nucleotides and creatine kinase. The total volume was 44 Once combined, 6 μl of 280 mM MgOAc was added to the mixture to achieve a final concentration of 33 mM. 10 μl of the reaction mix was then transferred to a C-Chip haemocytometer slide which was placed on a heated stage set to 39° C. before being observed under the microscope where images were taken under bright field light conditions and fluorescence conditions.

[2] = target: T2, Gp32-HIS2 (phage vB_EcoM_NBG1); experiment: as above; conditions: tags: C-terminal HIS2 IDR (human OTX1); label: FAM
T2 chain: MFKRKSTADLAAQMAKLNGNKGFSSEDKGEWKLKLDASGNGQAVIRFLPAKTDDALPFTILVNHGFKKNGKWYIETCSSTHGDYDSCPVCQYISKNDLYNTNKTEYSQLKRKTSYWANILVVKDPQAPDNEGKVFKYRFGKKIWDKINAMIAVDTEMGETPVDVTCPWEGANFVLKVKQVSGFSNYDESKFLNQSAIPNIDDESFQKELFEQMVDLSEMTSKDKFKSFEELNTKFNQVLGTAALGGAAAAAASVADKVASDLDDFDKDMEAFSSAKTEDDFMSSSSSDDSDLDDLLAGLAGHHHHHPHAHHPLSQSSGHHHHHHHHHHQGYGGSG
Experimental: as §1, with “Gp32-HIS2” for “Gp32-HRP”, “Gp32-His2,” for “Gp32,”

Binder: CCGCAATGGTGCACTCTCAGTACAATCTGCTCTGATG (ssDNA) [FAM oligo probe]
- binding result [1]: binds
- binding result [2]: binds
